In publication PMC3585263, “A Novel Ion Channel Formed by Interaction of TRPML3 with TRPV5” (PLoS ONE, 2013):
Values belong to the molecule of their own block, whether it stands above or below them.

Columns and labels:
[1] = biological target: TRPML3 (not stated (human or mouse cDNA cloned)) (UniProt Q8R4F0); experiment: FRET or BRET; acceptor photobleaching FRET in transiently transfected HEK293 cells; C-terminal CFP and YFP fusions; FRET efficiency from the recovery of CFP fluorescence during YFP photobleaching
[2] = biological target: T1, TRPML3 ( (human or mouse cDNA cloned), UniProt Q8R4F0 1-553); experiment: as above; conditions: partners not purified
T1 construct: TRPML3 cation channel; pcDNA3.1 plasmids held full-length mouse TRPML3 (NM_134160) and human TRPML3 (NM_018298); 'full-length' is printed for the mouse cDNA; Stood as CFP fusion and as YFP fusion in the FRET pairs; also called mucolipin 3; source: HEK293, transiently transfected, in cells; not shown: YFP or CFP, C-terminal, kept
T1 sequence (looked up): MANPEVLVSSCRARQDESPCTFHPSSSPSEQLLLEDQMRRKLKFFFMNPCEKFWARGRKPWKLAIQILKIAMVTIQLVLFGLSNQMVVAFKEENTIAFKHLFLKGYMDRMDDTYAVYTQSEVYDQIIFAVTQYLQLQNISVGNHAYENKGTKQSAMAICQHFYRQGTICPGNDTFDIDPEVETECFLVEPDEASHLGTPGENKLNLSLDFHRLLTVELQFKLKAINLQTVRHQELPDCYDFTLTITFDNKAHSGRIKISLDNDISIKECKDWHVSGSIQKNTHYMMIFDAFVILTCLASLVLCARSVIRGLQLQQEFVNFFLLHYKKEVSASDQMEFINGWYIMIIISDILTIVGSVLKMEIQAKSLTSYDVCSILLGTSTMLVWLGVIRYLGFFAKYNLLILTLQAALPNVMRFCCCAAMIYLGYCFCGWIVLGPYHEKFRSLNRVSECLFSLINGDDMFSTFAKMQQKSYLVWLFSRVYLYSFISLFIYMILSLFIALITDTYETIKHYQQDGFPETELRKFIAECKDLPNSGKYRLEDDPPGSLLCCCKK

[3] = biological target: TRPV5 (mouse) (UniProt P69744)
[4] = biological target: TRPV5 (mouse) (UniProt P69744); remark: listed apart in the source

Sequence of TRPV5 (mouse) (P69744 whole entry): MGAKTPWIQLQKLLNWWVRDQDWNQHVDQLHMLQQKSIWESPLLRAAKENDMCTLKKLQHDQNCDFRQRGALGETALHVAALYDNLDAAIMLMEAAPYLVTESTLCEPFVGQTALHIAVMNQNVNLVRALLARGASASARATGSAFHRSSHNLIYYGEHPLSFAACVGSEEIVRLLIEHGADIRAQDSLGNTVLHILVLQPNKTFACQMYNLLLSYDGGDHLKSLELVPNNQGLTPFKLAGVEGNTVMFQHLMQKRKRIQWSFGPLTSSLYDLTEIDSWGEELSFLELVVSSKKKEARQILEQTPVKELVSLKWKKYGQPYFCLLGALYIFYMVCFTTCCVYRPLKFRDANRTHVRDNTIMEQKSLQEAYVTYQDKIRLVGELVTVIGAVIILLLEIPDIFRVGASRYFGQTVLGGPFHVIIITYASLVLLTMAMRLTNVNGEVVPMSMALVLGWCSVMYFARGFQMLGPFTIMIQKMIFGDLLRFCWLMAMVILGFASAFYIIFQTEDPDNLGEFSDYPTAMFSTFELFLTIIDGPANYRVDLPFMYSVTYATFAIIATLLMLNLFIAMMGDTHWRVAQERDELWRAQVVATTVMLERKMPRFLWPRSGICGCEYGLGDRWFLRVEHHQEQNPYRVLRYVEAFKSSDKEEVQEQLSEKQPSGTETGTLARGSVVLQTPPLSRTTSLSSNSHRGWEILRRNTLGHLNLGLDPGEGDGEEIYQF

FRET efficiency [1]: < 5%
Molecule: YFP alone

FRET efficiency [2]: < 5%
B1: PKD2 (natural protein, UniProt Q13563 1-968, looked up)
chain: MVNSSRVQPQQPGDAKRPPAPRAPDPGRLMAGCAAVGASLAAPGGLCEQRGLEIEMQRIRQAAARDPPAGAAASPSPPLSSCSRQAWSRDNPGFEAEEEEEEVEGEEGGMVVEMDVEWRPGSRRSAASSAVSSVGARSRGLGGYHGAGHPSGRRRRREDQGPPCPSPVGGGDPLHRHLPLEGQPPRVAWAERLVRGLRGLWGTRLMEESSTNREKYLKSVLRELVTYLLFLIVLCILTYGMMSSNVYYYTRMMSQLFLDTPVSKTEKTNFKTLSSMEDFWKFTEGSLLDGLYWKMQPSNQTEADNRSFIFYENLLLGVPRIRQLRVRNGSCSIPQDLRDEIKECYDVYSVSSEDRAPFGPRNGTAWIYTSEKDLNGSSHWGIIATYSGAGYYLDLSRTREETAAQVASLKKNVWLDRGTRATFIDFSVYNANINLFCVVRLLVEFPATGGVIPSWQFQPLKLIRYVTTFDFFLAACEIIFCFFIFYYVVEEILEIRIHKLHYFRSFWNCLDVVIVVLSVVAIGINIYRTSNVEVLLQFLEDQNTFPNFEHLAYWQIQFNNIAAVTVFFVWIKLFKFINFNRTMSQLSTTMSRCAKDLFGFAIMFFIIFLAYAQLAYLVFGTQVDDFSTFQECIFTQFRIILGDINFAEIEEANRVLGPIYFTTFVFFMFFILLNMFLAIINDTYSEVKSDLAQQKAEMELSDLIRKGYHKALVKLKLKKNTVDDISESLRQGGGKLNFDELRQDLKGKGHTDAEIEAIFTKYDQDGDQELTEHEHQQMRDDLEKEREDLDLDHSSLPRPMSSRSFPRSLDDSEEDDDEDSGHSSRRRGSISSGVSYEEFQVLVRRVDRMEHSIGSIVSKIDAVIVKLEIMERAKLKRREVLGRLLDGVAEDERLGRDSEIHREQMERLVREELERWESDDAASQISHGLGTPVGLNGQPRPRSSRPSSSQSTEGMEGAGGNGSSNVHV
notes: PKD2 (TRPP2) cation channel; construct and species not described; also called TRPP2; source: HEK293, transiently transfected, in cells; not shown: YFP or CFP, C-terminal, kept

FRET efficiency [2]: < 5%
B2: TRPA1 (natural protein, UniProt O75762 1-1119, looked up)
chain: MKRSLRKMWRPGEKKEPQGVVYEDVPDDTEDFKESLKVVFEGSAYGLQNFNKQKKLKRCDDMDTFFLHYAAAEGQIELMEKITRDSSLEVLHEMDDYGNTPLHCAVEKNQIESVKFLLSRGANPNLRNFNMMAPLHIAVQGMNNEVMKVLLEHRTIDVNLEGENGNTAVIIACTTNNSEALQILLKKGAKPCKSNKWGCFPIHQAAFSGSKECMEIILRFGEEHGYSRQLHINFMNNGKATPLHLAVQNGDLEMIKMCLDNGAQIDPVEKGRCTAIHFAATQGATEIVKLMISSYSGSVDIVNTTDGCHETMLHRASLFDHHELADYLISVGADINKIDSEGRSPLILATASASWNIVNLLLSKGAQVDIKDNFGRNFLHLTVQQPYGLKNLRPEFMQMQQIKELVMDEDNDGCTPLHYACRQGGPGSVNNLLGFNVSIHSKSKDKKSPLHFAASYGRINTCQRLLQDISDTRLLNEGDLHGMTPLHLAAKNGHDKVVQLLLKKGALFLSDHNGWTALHHASMGGYTQTMKVILDTNLKCTDRLDEDGNTALHFAAREGHAKAVALLLSHNADIVLNKQQASFLHLALHNKRKEVVLTIIRSKRWDECLKIFSHNSPGNKCPITEMIEYLPECMKVLLDFCMLHSTEDKSCRDYYIEYNFKYLQCPLEFTKKTPTQDVIYEPLTALNAMVQNNRIELLNHPVCKEYLLMKWLAYGFRAHMMNLGSYCLGLIPMTILVVNIKPGMAFNSTGIINETSDHSEILDTTNSYLIKTCMILVFLSSIFGYCKEAGQIFQQKRNYFMDISNVLEWIIYTTGIIFVLPLFVEIPAHLQWQCGAIAVYFYWMNFLLYLQRFENCGIFIVMLEVILKTLLRSTVVFIFLLLAFGLSFYILLNLQDPFSSPLLSIIQTFSMMLGDINYRESFLEPYLRNELAHPVLSFAQLVSFTIFVPIVLMNLLIGLAVGDIAEVQKHASLKRIAMQVELHTSLEKKLPLWFLRKVDQKSTIVYPNKPRSGGMLFHIFCFLFCTGEIRQEIPNADKSLEMEILKQKYRLKDLTFLLEKQHELIKLIIQKMEIISETEDDDSHCSFQDRFKKEQMEQRNSRWNTVLRAVKAKTHHLEP
notes: TRPA1 cation channel; construct and species not described; source: HEK293, transiently transfected, in cells; not shown: YFP or CFP, C-terminal, kept

FRET efficiency [2]: < 5%
B3: TRPV2 (natural protein, UniProt Q9Y5S1 1-764, looked up)
chain: MTSPSSSPVFRLETLDGGQEDGSEADRGKLDFGSGLPPMESQFQGEDRKFAPQIRVNLNYRKGTGASQPDPNRFDRDRLFNAVSRGVPEDLAGLPEYLSKTSKYLTDSEYTEGSTGKTCLMKAVLNLKDGVNACILPLLQIDRDSGNPQPLVNAQCTDDYYRGHSALHIAIEKRSLQCVKLLVENGANVHARACGRFFQKGQGTCFYFGELPLSLAACTKQWDVVSYLLENPHQPASLQATDSQGNTVLHALVMISDNSAENIALVTSMYDGLLQAGARLCPTVQLEDIRNLQDLTPLKLAAKEGKIEIFRHILQREFSGLSHLSRKFTEWCYGPVRVSLYDLASVDSCEENSVLEIIAFHCKSPHRHRMVVLEPLNKLLQAKWDLLIPKFFLNFLCNLIYMFIFTAVAYHQPTLKKQAAPHLKAEVGNSMLLTGHILILLGGIYLLVGQLWYFWRRHVFIWISFIDSYFEILFLFQALLTVVSQVLCFLAIEWYLPLLVSALVLGWLNLLYYTRGFQHTGIYSVMIQKVILRDLLRFLLIYLVFLFGFAVALVSLSQEAWRPEAPTGPNATESVQPMEGQEDEGNGAQYRGILEASLELFKFTIGMGELAFQEQLHFRGMVLLLLLAYVLLTYILLLNMLIALMSETVNSVATDSWSIWKLQKAISVLEMENGYWWCRKKQRAGVMLTVGTKPDGSPDERWCFRVEEVNWASWEQTLPTLCEDPSGAGVPRTLENPVLASPPKEDEDGASEENYVPVQLLQSN
notes: TRPV2 cation channel; construct and species not described; source: HEK293, transiently transfected, in cells; not shown: YFP or CFP, C-terminal, kept

average open time, single channels of cotransfected HEK293 cells, first type of current, condition 1 [3]: 0.4 ms
average open time, single channels of cotransfected HEK293 cells, second type of current, condition 1 [3]: 0.16 ms
average open time, single channels of cotransfected HEK293 cells, second type of current, condition 2 [3]: 0.17 ms
mean open time, single channels of cotransfected HEK293 cells, first type of current, condition 2 [3]: 5.98 ms
single channel conductance at −150 mV, outside-out patches of cotransfected HEK293 cells, first type of current, condition 1 [3]: 32.3 pS
single channel conductance, cotransfected HEK293 cells, first type of current, condition 2 [3]: 33.4 pS
single channel conductance, cotransfected HEK293 cells, second type of current, condition 1 [3]: 34.6 pS
single channel conductance, cotransfected HEK293 cells, second type of current, condition 2 [3]: 46.7 pS
whole-cell current density of the novel current at −150 mV in standard bath solution (condition 1), HEK293 cells cotransfected with TRPV5 and TRPML3 [4]: -0.129 nA/pF
B4: TRPML3 (natural protein)
chain: T1 sequence (looked up)

FRET efficiency [2]: < 5%
B5: TRPC6 (natural protein, UniProt Q9Y210 1-931, looked up)
chain: MSQSPAFGPRRGSSPRGAAGAAARRNESQDYLLMDSELGEDGCPQAPLPCYGYYPCFRGSDNRLAHRRQTVLREKGRRLANRGPAYMFSDRSTSLSIEEERFLDAAEYGNIPVVRKMLEECHSLNVNCVDYMGQNALQLAVANEHLEITELLLKKENLSRVGDALLLAISKGYVRIVEAILSHPAFAEGKRLATSPSQSELQQDDFYAYDEDGTRFSHDVTPIILAAHCQEYEIVHTLLRKGARIERPHDYFCKCNDCNQKQKHDSFSHSRSRINAYKGLASPAYLSLSSEDPVMTALELSNELAVLANIEKEFKNDYKKLSMQCKDFVVGLLDLCRNTEEVEAILNGDVETLQSGDHGRPNLSRLKLAIKYEVKKFVAHPNCQQQLLSIWYENLSGLRQQTMAVKFLVVLAVAIGLPFLALIYWFAPCSKMGKIMRGPFMKFVAHAASFTIFLGLLVMNAADRFEGTKLLPNETSTDNAKQLFRMKTSCFSWMEMLIISWVIGMIWAECKEIWTQGPKEYLFELWNMLDFGMLAIFAASFIARFMAFWHASKAQSIIDANDTLKDLTKVTLGDNVKYYNLARIKWDPSDPQIISEGLYAIAVVLSFSRIAYILPANESFGPLQISLGRTVKDIFKFMVIFIMVFVAFMIGMFNLYSYYIGAKQNEAFTTVEESFKTLFWAIFGLSEVKSVVINYNHKFIENIGYVLYGVYNVTMVIVLLNMLIAMINSSFQEIEDDADVEWKFARAKLWFSYFEEGRTLPVPFNLVPSPKSLFYLLLKLKKWISELFQGHKKGFQEDAEMNKINEEKKLGILGSHEDLSKLSLDKKQVGHNKQPSIRSSEDFHLNSFNNPPRQYQKIMKRLIKRYVLQAQIDKESDEVNEGELKEIKQDISSLRYELLEEKSQNTEDLAELIRELGEKLSMEPNQEETNR
notes: TRPC6 cation channel; construct and species not described; source: HEK293, transiently transfected, in cells; not shown: YFP or CFP, C-terminal, kept
